Data from article PMC8610599.

Tests used:
Test in all cases: BLI
PGT121 = details: parent: est. 0.20; read off a plot
VRC01 = details: parent: est. 0.38; read off a plot
PGDM1400 = details: parent: est. 0.40; read off a plot
PGT151 = details: parent: est. 1.6; read off a plot

| Substance | response (AUC (2G12 normalized)) (PGT121) | response (AUC (2G12 normalized)) (VRC01) | response (AUC (2G12 normalized)) (PGDM1400) | response (AUC (2G12 normalized)) (PGT151) |
| --- | --- | --- | --- | --- |
| LAI SOSIP.664 trimer F53V | 0.18 | 0.45 | 0.33 | 1.5 |
| LAI SOSIP.664 trimer F53V; Q567R | 0.22 | 0.4 | 0.35 | 1.5 |
| LAI SOSIP.664 trimer Q567R | 0.22 | 0.42 | 0.3 | 1.6 |
| LAI SOSIP.664 trimer Q590A | 0.18 | 0.62 | 0.35 | 1.5 |
| LAI SOSIP.664 trimer Q590A; S164G | 0.17 | 0.7 | 0.2 | 1.4 |
| LAI SOSIP.664 trimer R585F | 0.15 | 0.4 | 0.35 | 1.5 |
| LAI SOSIP.664 trimer R585F; Q567R | 0.17 | 0.4 | 0.35 | 1.5 |
| LAI SOSIP.664 trimer S164G | 0.22 | 0.47 | 0.25 | 1.5 |
| LAI SOSIP.664 trimer Y586W | 0.18 | 0.88 | 0.42 | 1.3 |
| LAI SOSIP.664 trimer Y586W; Q567R | 0.2 | 0.55 | 0.3 | 1.5 |
